Molecular target: T1, MyoD (Epinephelus coioides (orange-spotted …, UniProt D9IV55 1-269))
T1 sequence: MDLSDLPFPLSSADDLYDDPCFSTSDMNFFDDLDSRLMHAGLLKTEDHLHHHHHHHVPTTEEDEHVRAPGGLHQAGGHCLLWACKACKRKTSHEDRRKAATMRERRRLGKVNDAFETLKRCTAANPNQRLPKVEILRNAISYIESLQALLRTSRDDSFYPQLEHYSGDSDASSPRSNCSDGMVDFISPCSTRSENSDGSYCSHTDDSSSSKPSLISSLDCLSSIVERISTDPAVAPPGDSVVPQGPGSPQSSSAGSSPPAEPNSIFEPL
Experiment: EMSA; 2 ug MyoD, increasing probe, poly[d(I-C)] 0.1 ng, 5 mM Mg2+; 20 mM HEPES pH 7.9, 50 mM KCl, 5 mM MgCl2, 0.5 mM EDTA, 5 mM DTT, 5% glycerol, 0.1 ng poly[d(I-C)], 30 min room temperature; 6.5% native PAGE 0.5X TBE
Conditions: protein: recombinant; tags: C-terminal pET-29a His tag likely (NdeI/XhoI primers, no stop codon); chain copies: 2; label: Cy3; blunt

B1: E-box E6 probe (E6F/E6R) (dsDNA)
DNA 1: CTGTATGTGGATCATTTGTGTCTTTGGTGG
DNA 2: CCACCAAAGACACAAATGATCCACATACAG
B1: binds.

Source: PMC5643063, “Viral infection upregulates myostatin promoter activity in orange-spotted grouper (Epinephelus coioides)”
